Test results reported in publication PMC4737184, “The activity of CouR, a MarR family transcriptional regulator, is modulated through a novel molecular mechanism” (Nucleic Acids Research, 2015).
Where a chain is given by its changes, count along the chain named.

What was measured:
CouR [1] = molecular target: T1, CouR (Rhodococcus jostii, UniProt Q0S6D0, R36A/R38A); experiment: ITC; type: binding
T1 construct: gene RHA1_ro05125; full-length

CouR [2] = molecular target: T2, CouR (Rhodococcus jostii, UniProt Q0S6D0, R36A); experiment: ITC; type: binding
T2 construct: gene RHA1_ro05125; full-length

CouR [3] = molecular target: T3, CouR (Rhodococcus jostii, UniProt Q0S6D0, R38A); experiment: ITC; type: binding
T3 construct: gene RHA1_ro05125; full-length

CouR [4] = molecular target: T4, CouR (Rhodococcus jostii, UniProt Q0S6D0); experiment: ([…] Å) and ITC; EMSA in support; type: binding
T4 construct: gene RHA1_ro05125; full-length, homodimer; crystal model residues 4–146
T4 sequence (Q0S6D0 1-146): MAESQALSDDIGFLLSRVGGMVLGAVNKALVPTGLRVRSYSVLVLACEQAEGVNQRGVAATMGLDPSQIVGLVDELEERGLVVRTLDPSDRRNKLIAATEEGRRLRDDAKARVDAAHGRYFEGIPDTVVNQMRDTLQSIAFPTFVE

CouR [5] = molecular target: T5, CouR (Rhodococcus jostii RHA1, UniProt Q0S6D0 1-146); experiment: EMSA; 25-200 nM CouR; EMSA: 20 mM HEPES pH 7.6, 10 mM (NH4)2SO4, 30 mM KCl, 1 mM DTT, 1 mM EDTA, 0.2% Tween 20, 100 ug/ml poly[d(I-C)], 1 nM probe, 25 C, 20 min; details: protein: recombinant; tags: His-tag removed by Factor Xa; extra N-terminal His residue remains; chain copies: 2; label: 3' DIG-11-ddUTP (probe); blunt
T5 sequence: T4 sequence (Q0S6D0 1-146)

CouR R38A = molecular target: T6, CouR R38A (Rhodococcus jostii RHA1, UniProt Q0S6D0 1-146, R38A); experiment: EMSA; 50 or 200 nM protein; EMSA: 20 mM HEPES pH 7.6, 10 mM (NH4)2SO4, 30 mM KCl, 1 mM DTT, 1 mM EDTA, 0.2% Tween 20, 100 ug/ml poly[d(I-C)], 1 nM probe, 25 C, 20 min; details: protein: recombinant; tags: His-tag removed by Factor Xa; extra N-terminal His residue remains; chain copies: 2; label: 3' DIG-11-ddUTP (probe); blunt
T6 sequence: T4 sequence (Q0S6D0 1-146) with R38A

CouR R36A/R38A = molecular target: T7, CouR R36A/R38A (Rhodococcus jostii RHA1, UniProt Q0S6D0 1-146, R36A;R38A); experiment: as above; details: protein: recombinant; tags: His-tag removed by Factor Xa; extra N-terminal His residue remains; chain copies: 2; label: 3' DIG-11-ddUTP (probe); blunt
T7 sequence: T4 sequence (Q0S6D0 1-146) with R36A, R38A

CouR R36A = molecular target: T8, CouR R36A (Rhodococcus jostii RHA1, UniProt Q0S6D0 1-146, R36A); experiment: as above; details: protein: recombinant; tags: His-tag removed by Factor Xa; extra N-terminal His residue remains; chain copies: 2; label: 3' DIG-11-ddUTP (probe); blunt
T8 sequence: T4 sequence (Q0S6D0 1-146) with R36A

CouR [6] = molecular target: T5, CouR; experiment: competition; 1 uM unlabelled vs 1 nM DIG-couRp_couNp, 200 nM CouR; EMSA: 20 mM HEPES pH 7.6, 10 mM (NH4)2SO4, 30 mM KCl, 1 mM DTT, 1 mM EDTA, 0.2% Tween 20, 100 ug/ml poly[d(I-C)], 1 nM probe, 25 C, 20 min; details: protein: recombinant; tags: His-tag removed by Factor Xa; extra N-terminal His residue remains; chain copies: 2; blunt

Molecule: CC(C)(COP(=O)(O)OP(=O)(O)OC[C@H]1O[C@@H](n2cnc3c(N)ncnc32)[C@H](O)[C@@H]1OP(=O)(O)O)[C@@H](O)C(=O)NCCC(=O)NCCSC(=O)/C=C/c1ccc(O)cc1 [p-coumaroyl–CoA]
- Kd (CouR [1]): 89 µM
- Kd (CouR [2]): 28 µM
- Kd (CouR [3]): 25 µM
- Kd (CouR [4]): 11 µM

B1: couRp_couNp (dsDNA)
DNA 1: CATTGATGATTGAGAATGTCAATGATTAAGG
DNA 2: CCTTAATCATTGACATTCTCAATCATCAATG
- binding result (CouR [5]): binds
- binding result (CouR R38A): no binding
- binding result (CouR R36A/R38A): no binding
- binding result (CouR R36A): no binding

B2: couRp_couNp_m (dsDNA)
DNA 1: CATTGATGTAACTGAATGAGTTAGATTAAGG
DNA 2: CCTTAATCTAACTCATTCAGTTACATCAATG
- binding result (CouR [5]): no binding

B3: couTp (dsDNA)
DNA 1: CATTAATCATTGAACTTGTCAATGGAAGAGA
DNA 2: TCTCTTCCATTGACAAGTTCAATGATTAATG
- binding result (CouR [6]): binds

B4: couHp (dsDNA)
DNA 1: TATCAATCATTGATAATGTCAATGATTGACT
DNA 2: AGTCAATCATTGACATTATCAATGATTGATA
- binding result (CouR [6]): binds
